Source: US20080253962A1 (Bristol-Myers Squibb, published 2008)

B1: 13B1 human monoclonal antibody (antibody, V domains shown)
VH: QVQLVQSGAEVKKPGASVKVSCKASGYNFNSYDISWVRQAAGQGLEWMGWMNPNSGYTSYAQKFQGRVTMTWNTSISTAYMELSSLRSEDSAVYYCAREGIVGAIGWFDPWGQGTLVTVSS
VL: DIQMTQSPSSVSASVGDRVTITCRASQGISSWLAWYQHKPGKAPKLLIYAASSLQSGVPSRFSGSGSGTDFTLTISSLQPEDFATYYCQQANSFPLTFGGGTKVEIK
notes: Hybridoma-derived fully human IgG with kappa light chain from KM mice; also called anti-IRTA4 HuMAb 13B1
B2: 9G11 human monoclonal antibody (antibody, V domains shown)
VH: QVQLVQSGAEVKKPGASVKVSCKASGYTFTSYAMHWVRQAPGQRLEWMGWINVGNGNTRYSQKFQGRVTITRDTSASTAYMELSSLRSEDTAVYYCAREGSNGWHEDFDYWGQGTLVTVSS
VL: EIVLTQSPATLSLSPGERATLSCRASQSVSSYLAWYQQKPGQAPRLLIYDASNRATGIPARFSGSGSGTDFTLTISSLEPEDFAVYYCQQRSDWPPSLTFGGGTKVEIK
notes: Hybridoma-derived fully human IgG with kappa light chain from KM mice; also called anti-IRTA4 HuMAb 9G11

Tests used:
[1] = target: T1, IRTA1, full length transmembrane form with N-terminal myc tag, expressed on transfected CHO cells (human, UniProt Q96PJ5 20-515); assay: flow cytometry on transfected CHO cells, GMFI
T1 construct: Full length cDNA in CHO cells; also called human IRTA-1; not shown: myc tag at the N-terminus
T1 sequence: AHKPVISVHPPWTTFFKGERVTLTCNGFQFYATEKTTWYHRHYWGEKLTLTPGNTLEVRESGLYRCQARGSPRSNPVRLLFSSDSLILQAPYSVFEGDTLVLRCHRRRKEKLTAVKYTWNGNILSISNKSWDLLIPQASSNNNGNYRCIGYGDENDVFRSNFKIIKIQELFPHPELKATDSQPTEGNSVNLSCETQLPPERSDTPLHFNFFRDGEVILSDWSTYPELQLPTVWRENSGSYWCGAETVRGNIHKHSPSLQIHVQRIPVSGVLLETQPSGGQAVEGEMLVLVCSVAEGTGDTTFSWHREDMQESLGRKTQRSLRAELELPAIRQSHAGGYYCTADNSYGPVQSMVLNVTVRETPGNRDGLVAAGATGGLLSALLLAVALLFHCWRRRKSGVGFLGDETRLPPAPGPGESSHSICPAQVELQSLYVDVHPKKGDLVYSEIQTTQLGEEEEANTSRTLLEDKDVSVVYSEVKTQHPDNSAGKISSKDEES
Description: (§1) Chinese hamster ovary (CHO) cell lines that express one of each of the five IRTA proteins at the cell surface were developed and used to determine the specificity of the IRTA4 monoclonal antibodies by flow cytometry. CHO cells were transfected with expression plasmids containing full length cDNA encoding transmembrane forms of IRTA1, IRTA2, IRTA3, IRTA4, or IRTA5. In addition, the transfected proteins contained a myc tag at the N-terminus for detection by anti-myc antibody. Binding of the two anti-IRTA4 monoclonal antibodies was assessed by incubating the transfected cells with each of the IRTA4 Abs at a concentration of 10 μg/ml. The cells were washed and binding was detected with a FITC-labeled anti-human IgG Ab. A murine anti-myc Ab followed by labeled anti-murine IgG was used as the positive control. Secondary antibody alone was used as a negative control. The results are depicted in FIG. 7. The IRTA4 monoclonal antibodies 9G11 and 13B1 bound to the CHO line transfected with IRTA4 but not to CHO lines expressing IRTA1, 2, 3 or 5 as measured by the mean fluorescent intensity (MFI) of staining.

[2] = target: T2, IRTA2, full length transmembrane form with N-terminal myc tag, expressed on transfected CHO cells (human, UniProt Q96RD9 16-977); assay: flow cytometry on transfected CHO cells, GMFI
T2 construct: Full length cDNA in CHO cells; also called human IRTA-2; not shown: myc tag at the N-terminus
T2 chain: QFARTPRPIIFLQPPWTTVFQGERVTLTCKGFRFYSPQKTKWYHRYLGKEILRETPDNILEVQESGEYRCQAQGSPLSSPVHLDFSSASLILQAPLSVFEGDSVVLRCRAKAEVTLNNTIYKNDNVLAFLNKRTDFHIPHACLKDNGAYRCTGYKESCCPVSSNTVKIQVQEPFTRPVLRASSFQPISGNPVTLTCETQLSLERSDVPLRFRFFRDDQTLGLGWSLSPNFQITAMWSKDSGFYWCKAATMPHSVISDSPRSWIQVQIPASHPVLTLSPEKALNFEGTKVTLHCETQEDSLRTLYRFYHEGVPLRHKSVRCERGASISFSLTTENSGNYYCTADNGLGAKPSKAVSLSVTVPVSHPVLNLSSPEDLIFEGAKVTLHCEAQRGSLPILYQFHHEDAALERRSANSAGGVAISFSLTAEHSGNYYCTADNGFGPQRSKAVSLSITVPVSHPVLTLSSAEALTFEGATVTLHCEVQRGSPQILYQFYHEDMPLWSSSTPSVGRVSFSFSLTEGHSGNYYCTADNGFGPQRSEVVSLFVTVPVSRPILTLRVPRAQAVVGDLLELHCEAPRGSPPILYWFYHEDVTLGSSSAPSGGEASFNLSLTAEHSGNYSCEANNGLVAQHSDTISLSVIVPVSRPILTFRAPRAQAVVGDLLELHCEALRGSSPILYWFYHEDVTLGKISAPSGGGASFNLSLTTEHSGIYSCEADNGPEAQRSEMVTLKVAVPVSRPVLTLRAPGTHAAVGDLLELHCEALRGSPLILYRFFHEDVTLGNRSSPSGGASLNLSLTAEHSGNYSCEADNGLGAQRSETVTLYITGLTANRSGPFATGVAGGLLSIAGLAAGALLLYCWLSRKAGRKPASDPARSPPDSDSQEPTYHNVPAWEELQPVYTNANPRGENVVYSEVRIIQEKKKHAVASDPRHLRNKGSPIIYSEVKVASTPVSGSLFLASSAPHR
Description: as §1

[3] = target: T3, IRTA3, full length transmembrane form with N-terminal myc tag, expressed on transfected CHO cells (human, UniProt Q96P31 18-734); assay: flow cytometry on transfected CHO cells, GMFI
T3 construct: Full length cDNA in CHO cells; also called human IRTA-3; not shown: myc tag at the N-terminus
T3 sequence: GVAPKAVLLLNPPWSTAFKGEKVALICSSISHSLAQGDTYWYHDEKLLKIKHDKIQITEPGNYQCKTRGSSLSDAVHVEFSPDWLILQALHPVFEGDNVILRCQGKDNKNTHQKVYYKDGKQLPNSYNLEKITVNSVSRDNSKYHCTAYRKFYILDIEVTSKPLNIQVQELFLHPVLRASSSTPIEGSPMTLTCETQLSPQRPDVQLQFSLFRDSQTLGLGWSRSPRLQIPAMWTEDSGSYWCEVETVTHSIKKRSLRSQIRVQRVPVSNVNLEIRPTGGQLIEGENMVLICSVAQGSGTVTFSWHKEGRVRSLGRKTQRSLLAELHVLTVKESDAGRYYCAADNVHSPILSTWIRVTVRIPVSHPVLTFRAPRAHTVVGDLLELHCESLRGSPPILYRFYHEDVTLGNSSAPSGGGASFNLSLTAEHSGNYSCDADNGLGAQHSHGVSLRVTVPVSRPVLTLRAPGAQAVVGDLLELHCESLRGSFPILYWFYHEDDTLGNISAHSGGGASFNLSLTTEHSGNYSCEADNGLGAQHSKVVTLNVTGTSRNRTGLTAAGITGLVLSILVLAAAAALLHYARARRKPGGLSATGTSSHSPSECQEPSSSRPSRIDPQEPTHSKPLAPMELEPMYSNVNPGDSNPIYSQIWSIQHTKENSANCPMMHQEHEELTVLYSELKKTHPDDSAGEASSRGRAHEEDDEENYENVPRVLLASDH
Description: as §1

[4] = target: T4, IRTA5, full length transmembrane form with N-terminal myc tag, expressed on transfected CHO cells (human, UniProt Q96LA6 17-429); assay: flow cytometry on transfected CHO cells, GMFI
T4 construct: Full length cDNA in CHO cells; also called human IRTA-5; not shown: myc tag at the N-terminus
T4 sequence: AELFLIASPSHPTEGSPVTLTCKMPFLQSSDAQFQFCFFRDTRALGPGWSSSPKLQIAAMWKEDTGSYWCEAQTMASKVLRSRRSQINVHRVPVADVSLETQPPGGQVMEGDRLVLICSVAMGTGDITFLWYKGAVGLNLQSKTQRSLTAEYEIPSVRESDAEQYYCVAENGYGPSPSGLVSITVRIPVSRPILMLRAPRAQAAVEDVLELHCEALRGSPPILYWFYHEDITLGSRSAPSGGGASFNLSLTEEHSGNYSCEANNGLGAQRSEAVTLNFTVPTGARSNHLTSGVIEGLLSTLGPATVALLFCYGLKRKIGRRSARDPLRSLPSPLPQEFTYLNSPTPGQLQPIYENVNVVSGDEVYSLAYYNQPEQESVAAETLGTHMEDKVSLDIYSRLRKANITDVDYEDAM
Description: as §1

[5] = target: T5, IRTA4-C9 antigen (fusion protein composed of the extracellular domain of the IRTA4 linked to the carboxy … (human, UniProt P02699 340-348 (bovine entry))); assay: Biacore SPR, antibody captured by anti-human IgG on CM5 chip, IRTA4-C9 flowed at 50-400 nM, 1:1 Langmuir fit
T5 construct: domain: carboxy terminal nine amino acids
T5 sequence: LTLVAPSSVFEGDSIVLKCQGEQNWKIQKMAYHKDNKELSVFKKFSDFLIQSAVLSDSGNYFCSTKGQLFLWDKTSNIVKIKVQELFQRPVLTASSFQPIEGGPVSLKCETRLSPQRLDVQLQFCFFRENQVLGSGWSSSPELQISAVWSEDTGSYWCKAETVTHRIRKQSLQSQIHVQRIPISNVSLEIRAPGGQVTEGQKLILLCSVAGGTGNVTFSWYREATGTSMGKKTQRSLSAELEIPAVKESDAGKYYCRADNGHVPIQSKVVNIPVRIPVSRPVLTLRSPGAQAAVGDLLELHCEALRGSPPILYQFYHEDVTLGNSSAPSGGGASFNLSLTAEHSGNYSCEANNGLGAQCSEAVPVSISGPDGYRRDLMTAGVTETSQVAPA
Description: Anti-IRTA4 antibodies were characterized for affinities and binding kinetics by Biacore analysis (Biacore AB, Uppsala, Sweden). Purified anti-IRTA4 monoclonal antibodies were captured by anti-human IgG antibody covalently linked to a CM5 chip (carboxy methyl dextran coated chip) via primary amines, using standard amine coupling chemistry and kit provided by Biacore. Binding was measured by flowing the IRTA4-C9 antigen (a fusion protein composed of the extracellular domain of the IRTA4 linked to the carboxy terminal nine amino acids of rhodopsin) in HBS EP buffer (provided by Biacore AB) at concentrations of 400, 300, 200, 100, and 50 nM at a flow rate of 20 μl/min. The antigen-antibody association kinetics was followed for 10 minutes and the dissociation kinetics was followed for 10 minutes. The association and dissociation curves were fit to a 1:1 Langmuir binding model using BIAevaluation software (Biacore AB).

[6] = target: T6, IRTA4, full length transmembrane form with N-terminal myc tag, expressed on transfected CHO cells (human, UniProt Q96LA5 20-508); assay: flow cytometry on IRTA4-transfected CHO cells, antibody at 10 µg/ml, FITC anti-human IgG detection, GMFI
T6 construct: Full length cDNA in CHO cells; also called human IRTA-4; CHO line transfected with IRTA4; not shown: myc tag at the N-terminus
T6 sequence: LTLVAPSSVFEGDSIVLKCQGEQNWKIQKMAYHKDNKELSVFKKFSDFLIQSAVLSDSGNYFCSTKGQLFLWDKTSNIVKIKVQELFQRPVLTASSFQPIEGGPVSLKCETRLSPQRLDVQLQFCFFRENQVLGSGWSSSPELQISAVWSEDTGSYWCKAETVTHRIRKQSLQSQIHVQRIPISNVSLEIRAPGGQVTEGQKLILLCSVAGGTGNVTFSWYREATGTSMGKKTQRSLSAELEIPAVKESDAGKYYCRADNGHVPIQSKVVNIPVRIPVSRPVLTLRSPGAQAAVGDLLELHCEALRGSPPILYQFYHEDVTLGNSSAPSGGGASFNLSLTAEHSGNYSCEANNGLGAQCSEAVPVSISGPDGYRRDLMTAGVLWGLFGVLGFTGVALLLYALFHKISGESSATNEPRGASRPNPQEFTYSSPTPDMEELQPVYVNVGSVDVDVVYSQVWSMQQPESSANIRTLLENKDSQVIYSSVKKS
Description: as §1

binding result [1]	binding result [2]	binding result [3]	binding result [4]	Kd [5] [nM]	koff [5] [s⁻¹]	kon [5] [M⁻¹ s⁻¹]	binding result [6]	Binder
no binding (tested: 10 µg/ml)	no binding (tested: 10 µg/ml)	no binding (tested: 10 µg/ml)	no binding (tested: 10 µg/ml)	3.48	0.000426	125000	binds	B1
no binding (tested: 10 µg/ml)	no binding (tested: 10 µg/ml)	no binding (tested: 10 µg/ml)	no binding (tested: 10 µg/ml)	2.8	7.4e-05	26300	binds	B2
